Results as given in US20150376265A1 (Genentech, published 2015).

What was measured:
[1] = target: T1, gH/gL/gO on the surface of cells (HCMV, UniProt P12824 24-743; P16832 31-278; F5HGP1 32-472); assay: FACS on transfected cells, data not shown
T1 construct: also called Complex II; cells expressing gH/gL/gO

[2] = target: T2, Complex I with gH D446N, on virions of HB1 - mutant virus 4 (HCMV, UniProt P12824 24-743; P16832 31-278; P16837 28-171; F5HCP3 26-214; F5HET4 19-129); assay: cell-based or functional assay
T2 chain 1: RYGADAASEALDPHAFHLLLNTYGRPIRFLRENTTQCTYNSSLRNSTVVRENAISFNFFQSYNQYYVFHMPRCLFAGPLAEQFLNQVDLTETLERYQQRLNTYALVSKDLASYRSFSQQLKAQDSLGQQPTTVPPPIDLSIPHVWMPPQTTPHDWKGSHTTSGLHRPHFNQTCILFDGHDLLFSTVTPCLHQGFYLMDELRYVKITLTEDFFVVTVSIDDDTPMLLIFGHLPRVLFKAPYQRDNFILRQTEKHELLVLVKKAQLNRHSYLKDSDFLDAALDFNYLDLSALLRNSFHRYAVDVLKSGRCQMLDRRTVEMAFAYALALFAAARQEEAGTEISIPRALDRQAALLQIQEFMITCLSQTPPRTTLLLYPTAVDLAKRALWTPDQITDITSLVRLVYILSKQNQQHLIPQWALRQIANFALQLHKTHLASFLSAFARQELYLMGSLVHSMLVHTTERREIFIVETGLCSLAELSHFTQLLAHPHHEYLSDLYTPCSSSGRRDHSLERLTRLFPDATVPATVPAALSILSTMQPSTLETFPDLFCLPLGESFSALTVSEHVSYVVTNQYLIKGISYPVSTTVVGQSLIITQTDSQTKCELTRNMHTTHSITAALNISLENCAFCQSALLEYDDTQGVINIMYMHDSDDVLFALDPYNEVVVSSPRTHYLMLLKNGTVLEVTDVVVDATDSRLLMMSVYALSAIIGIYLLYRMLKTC
T2 chain 2: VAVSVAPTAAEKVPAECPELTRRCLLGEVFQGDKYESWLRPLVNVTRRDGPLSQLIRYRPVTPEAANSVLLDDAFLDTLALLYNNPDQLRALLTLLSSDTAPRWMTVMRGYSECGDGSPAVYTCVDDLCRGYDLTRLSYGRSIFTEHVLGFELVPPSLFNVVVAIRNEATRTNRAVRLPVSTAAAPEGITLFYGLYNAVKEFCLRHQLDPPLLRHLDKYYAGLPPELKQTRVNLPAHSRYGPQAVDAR
T2 chain 3: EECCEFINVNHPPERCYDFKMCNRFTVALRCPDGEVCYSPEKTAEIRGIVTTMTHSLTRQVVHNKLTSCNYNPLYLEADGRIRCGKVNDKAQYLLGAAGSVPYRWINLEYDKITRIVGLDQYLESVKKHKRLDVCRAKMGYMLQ
T2 chain 4: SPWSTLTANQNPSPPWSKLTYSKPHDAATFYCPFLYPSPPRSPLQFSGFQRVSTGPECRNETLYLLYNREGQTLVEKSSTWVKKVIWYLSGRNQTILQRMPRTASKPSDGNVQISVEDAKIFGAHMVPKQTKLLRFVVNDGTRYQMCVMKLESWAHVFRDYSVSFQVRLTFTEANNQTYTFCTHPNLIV
T2 chain 5: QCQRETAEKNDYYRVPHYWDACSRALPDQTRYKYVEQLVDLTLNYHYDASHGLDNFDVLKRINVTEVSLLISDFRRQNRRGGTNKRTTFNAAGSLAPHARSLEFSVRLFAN

[3] = target: T3, Complex I with gH W168C, on virions of HB1 - mutant viruses 2 and 5 (HCMV, UniProt P12824 24-743; P16832 31-278; P16837 28-171; F5HCP3 26-214; F5HET4 19-129); assay: cell-based or functional assay
T3 chain 1: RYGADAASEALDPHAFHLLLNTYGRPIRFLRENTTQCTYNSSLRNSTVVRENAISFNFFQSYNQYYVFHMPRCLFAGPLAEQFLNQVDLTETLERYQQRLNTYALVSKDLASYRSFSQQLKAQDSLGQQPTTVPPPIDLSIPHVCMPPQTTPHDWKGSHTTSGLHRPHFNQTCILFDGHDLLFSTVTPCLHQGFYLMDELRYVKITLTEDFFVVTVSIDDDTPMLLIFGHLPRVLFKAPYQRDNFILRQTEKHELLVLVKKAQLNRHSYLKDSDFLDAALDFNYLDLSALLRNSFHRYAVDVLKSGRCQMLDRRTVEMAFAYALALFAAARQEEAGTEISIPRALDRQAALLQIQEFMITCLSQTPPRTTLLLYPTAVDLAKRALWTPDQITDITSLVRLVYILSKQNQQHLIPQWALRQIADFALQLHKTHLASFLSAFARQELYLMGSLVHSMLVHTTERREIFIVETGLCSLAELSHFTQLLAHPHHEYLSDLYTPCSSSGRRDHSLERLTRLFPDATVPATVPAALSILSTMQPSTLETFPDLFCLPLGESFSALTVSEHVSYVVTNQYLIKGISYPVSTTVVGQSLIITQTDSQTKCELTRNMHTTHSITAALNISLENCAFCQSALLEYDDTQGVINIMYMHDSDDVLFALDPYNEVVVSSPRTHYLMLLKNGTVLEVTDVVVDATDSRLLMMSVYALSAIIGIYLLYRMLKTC
T3 chain 2: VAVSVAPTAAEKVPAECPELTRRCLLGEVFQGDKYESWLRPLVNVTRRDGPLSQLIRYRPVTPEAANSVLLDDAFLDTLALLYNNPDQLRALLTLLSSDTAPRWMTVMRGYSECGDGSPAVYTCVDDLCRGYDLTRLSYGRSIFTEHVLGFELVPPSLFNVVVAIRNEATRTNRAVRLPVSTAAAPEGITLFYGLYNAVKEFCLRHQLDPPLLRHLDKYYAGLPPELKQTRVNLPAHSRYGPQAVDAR
T3 chain 3: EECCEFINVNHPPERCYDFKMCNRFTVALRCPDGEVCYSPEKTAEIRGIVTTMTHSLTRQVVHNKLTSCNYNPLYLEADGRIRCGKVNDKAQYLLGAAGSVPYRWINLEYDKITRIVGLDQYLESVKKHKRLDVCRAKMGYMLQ
T3 chain 4: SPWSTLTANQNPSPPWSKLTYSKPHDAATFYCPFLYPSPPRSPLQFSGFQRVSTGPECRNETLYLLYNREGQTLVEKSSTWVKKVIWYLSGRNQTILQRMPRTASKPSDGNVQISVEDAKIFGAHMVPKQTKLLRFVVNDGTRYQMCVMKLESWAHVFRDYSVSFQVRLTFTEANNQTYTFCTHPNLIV
T3 chain 5: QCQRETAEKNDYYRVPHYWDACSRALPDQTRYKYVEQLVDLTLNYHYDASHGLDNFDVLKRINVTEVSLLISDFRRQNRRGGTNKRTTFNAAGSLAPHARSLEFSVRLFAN

[4] = target: T4, gH/gL, full-length, on the surface of transfected HEK-293T cells (HCMV, UniProt P12824 24-743; P16832 31-278); assay: FACS on transfected HEK-293T cells
T4 construct: also called cells expressing gH/gL alone; cell-surface expressed gH/gL

T1 sequence (F5HGP1 32-472 limits assumed, one chain of several): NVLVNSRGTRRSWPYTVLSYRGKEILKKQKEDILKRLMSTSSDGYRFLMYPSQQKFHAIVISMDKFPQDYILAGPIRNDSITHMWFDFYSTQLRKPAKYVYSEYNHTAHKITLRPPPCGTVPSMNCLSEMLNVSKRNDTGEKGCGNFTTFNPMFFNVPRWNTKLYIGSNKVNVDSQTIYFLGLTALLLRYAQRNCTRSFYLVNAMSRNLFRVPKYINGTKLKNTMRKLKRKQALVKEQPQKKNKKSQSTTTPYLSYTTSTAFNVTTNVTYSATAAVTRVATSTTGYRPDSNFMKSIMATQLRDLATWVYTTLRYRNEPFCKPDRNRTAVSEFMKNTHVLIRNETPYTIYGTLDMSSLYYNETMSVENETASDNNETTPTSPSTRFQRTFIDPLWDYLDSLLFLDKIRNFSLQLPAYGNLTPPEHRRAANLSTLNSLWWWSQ

B1: hu8G8 (lambda4 8G8 graft and hu8G8.VH1) (antibody, V domains shown)
VH: EVQLVQSGAEVKKPGASVKVSCKASGYTFTNYGMNWVRQAPGQGLEWIGWINTYTGEPTYADDFKGRVTITRDTSTSTAYLELSSLRSEDTAVYYCARSWYYVSNYWYFDVWGQGTLVTVSS
VL: SVLTQSPSASASLGASVKLTCTLSSQHSTYTIEWYQQQPGKGPRYLMKLKKDGSHSTGDGIPDRFSGSSSGADRYLTISNLQSEDEADYYCGVGDTIKEQFVYVFGGGTKLTVLG
notes: also called hu8G8 with VH1; Humanized 8G8 with VH1
[1]
  binding result: no binding
[2]
  hu8G8 EC50, neutralisation of HB1 - mutant virus 4, Data Set 2: 0.1 ng/mL
[3]
  hu8G8 EC50, neutralisation of HB1 - mutant virus 2, Data Set 1: 8 ng/mL
  hu8G8 EC50, neutralisation of HB1 - mutant virus 2, Data Set 2: 6 ng/mL
  hu8G8 EC50, neutralisation of HB1 - mutant virus 5, Data Set 2: 1 ng/mL
[4]
  binding result: no binding (tested: saturating primary antibody)
